# How the values were obtained:
# [1] = molecular target: wildtype NT (NTwt), N-terminal fragment of Euprosthenops australis major spidroin 1 (MaSp1) (Euprosthenops australis); test: tryptophan fluorescence ratio 339/351 nm against pH, 5 µM protein, two-state fit of the monomer-dimer equilibrium
# [2] = molecular target: the molecule itself; test: tryptophan fluorescence ratio 339/351 nm against pH (self-association, dimerization)
# [3] = molecular target: the molecule itself; test: gel filtration on Superdex-200, self-association
# [4] = molecular target: the molecule itself; test: gel filtration in 20 mM Tris, pH 8, self-association
# [5] = molecular target: the molecule itself; test: SDS-PAGE under non-reducing conditions after thrombin cleavage, self-association
binder,measurement,setting,value
"wildtype NT (NTwt), N-terminal fragment of Euprosthenops australis major spidroin 1 (MaSp1) (protein) SHTTPWTNPGLAENFMNSFMQGLSSMPGFTASQLDDMSTIAQSMVQSIQSLAAQGRTSPNKLQALNMAFASSMAEIAASEEGGGSLSTKTSSIASAMSNAFLQTTGVVNQPFINEITQLVSMFAQAGMNDVSA",pKa of dimerization,[1],6.5 pH
"NTD40K/K65D, charge-reversed double mutant of the NT fragment of Euprosthenops australis MaSp1 (other, also called charge-reversed NT mutant; mutant NT) SHTTPWTNPGLAENFMNSFMQGLSSMPGFTASQLDKMSTIAQSMVQSIQSLAAQGRTSPNDLQALNMAFASSMAEIAASEEGGGSLSTKTSSIASAMSNAFLQTTGVVNQPFINEITQLVSMFAQAGMNDVSA",binding result,[2],"no binding (tested: 5 µM protein, pH 5.6-8.0)"
NTD40K/K65D-β17 fusion protein (other) MGHHHHHHMSHTTPWTNPGLAENFMNSFMQGLSSMPGFTASQLDKMSTIAQSMVQSIQSLAAQGRTSPNDLQALNMAFASSMAEIAASEEGGGSLSTKTSSIASAMSNAFLQTTGVVNQPFINEITQLVSMFAQAGMNDVSAGNSLVPRGSMGEQKLISEEDLGMQISMDYEIKFHGDGDNFDLNLDDSGGDLQLQIRGPGGRVHVHIHSSSGKVDFHVNNDGGDVEVKMH,binding result,[3],binds
"NTwt-Bri2113-231 fusion protein (other, also called NTwt-Bri2-BRICHOS) MGHHHHHHMSHTTPWTNPGLAENFMNSFMQGLSSMPGFTASQLDDMSTIAQSMVQSIQSLAAQGRTSPNKLQALNMAFASSMAEIAASEEGGGSLSTKTSSIASAMSNAFLQTTGVVNQPFINEITQLVSMFAQAGMNDVSAGNSLVPRGSQTIEENIKIFEEEEVEFISVPVPEFADSDPANIVHDFNKKLTAYLDLNLDKCYVIPLNTSIVMPPRNLLELLINIKAGTYLPQSYLIHEHMVITDRIENIDHLGFFIYRLCHDKETYKL",binding result,[4],binds
"NTD40K/K65D-Bri2113-231 fusion protein (other, also called NTD40K/K65D-Bri2-BRICHOS) MGHHHHHHMSHTTPWTNPGLAENFMNSFMQGLSSMPGFTASQLDKMSTIAQSMVQSIQSLAAQGRTSPNDLQALNMAFASSMAEIAASEEGGGSLSTKTSSIASAMSNAFLQTTGVVNQPFINEITQLVSMFAQAGMNDVSAGNSLVPRGSQTIEENIKIFEEEEVEFISVPVPEFADSDPANIVHDFNKKLTAYLDLNLDKCYVIPLNTSIVMPPRNLLELLINIKAGTYLPQSYLIHEHMVITDRIENIDHLGFFIYRLCHDKETYKL",binding result,[4],binds
"Bri2113-231 protein (Bri2-BRICHOS), truncated BRICHOS domain of Bri2 (other, Released from the NT fusion proteins by thrombin; A 12 kDa band is said to be a truncated form, probably cleaved unspecifically by thrombin; also called Bri2 BRICHOS domain) QTIEENIKIFEEEEVEFISVPVPEFADSDPANIVHDFNKKLTAYLDLNLDKCYVIPLNTSIVMPPRNLLELLINIKAGTYLPQSYLIHEHMVITDRIENIDHLGFFIYRLCHDKETYKL",binding result,[5],binds
